# pKd: −log10 of the molar value.
# Assays:
# GST-PreScission protease = test: SEC
# [1] = target: tag-free TbPEX6 (Trypanosoma brucei); test: SEC
# [2] = target: GST-TbPEX6 (full-length) (Trypanosoma brucei); test: AlphaScreen or HTRF
Substance,stoichiometry N (GST-PreScission protease),stoichiometry N [1],pKd [2]
GST-PreScission protease (enzyme),2,,
His6-TbPEX15ΔTM (1-320aa) (domain or fragment),,1,7.99
Tag-free TbPEX15ΔTM (1-320aa) (domain or fragment),,,7.52 to 7.82
